Paper PMC3468084

What was measured:
KpDnaB helicase [1] = molecular target: T1, KpDnaB helicase (Klebsiella pneumoniae, UniProt A6TGW0 1-471); experiment: EMSA; no flavonol; apparent Kd; 20 mM HEPES pH 7.0, 100 mM NaCl, 25 C, 30 min, 1.7 nM dT30, no Mg2+ or nucleotide stated; native 8% PAGE in TBE at 4 C
KpDnaB helicase [2] = molecular target: T1, KpDnaB helicase; experiment: EMSA; 16.7 uM galangin; apparent Kd; 20 mM HEPES pH 7.0, 100 mM NaCl, 25 C, 30 min, 1.7 nM dT30, no Mg2+ or nucleotide stated; native 8% PAGE in TBE at 4 C
KpDnaB helicase [3] = molecular target: T1, KpDnaB helicase; experiment: EMSA; 16.7 uM myricetin; apparent Kd; 20 mM HEPES pH 7.0, 100 mM NaCl, 25 C, 30 min, 1.7 nM dT30, no Mg2+ or nucleotide stated; native 8% PAGE in TBE at 4 C
KpDnaB helicase [4] = molecular target: T1, KpDnaB helicase; experiment: EMSA; 16.7 uM quercetin; apparent Kd; 20 mM HEPES pH 7.0, 100 mM NaCl, 25 C, 30 min, 1.7 nM dT30, no Mg2+ or nucleotide stated; native 8% PAGE in TBE at 4 C
KpDnaB helicase [5] = molecular target: T1, KpDnaB helicase; experiment: EMSA; 16.7 uM kaempferol; apparent Kd; 20 mM HEPES pH 7.0, 100 mM NaCl, 25 C, 30 min, 1.7 nM dT30, no Mg2+ or nucleotide stated; native 8% PAGE in TBE at 4 C

## TTTTTTTTTTTTTTTTTTTTTTTTTTTTTT (ssDNA) [dT30]
KpDnaB helicase [1]
  Kd: 970 ± 70 nM
KpDnaB helicase [2]
  Kd: 1030 ± 60 nM
KpDnaB helicase [3]
  Kd: 1110 ± 50 nM
KpDnaB helicase [4]
  Kd: 1030 ± 70 nM
KpDnaB helicase [5]
  Kd: 1100 ± 50 nM
